Data taken from patent publication US6645939 (MERCK, dated 2003).

Tests used:
[1] = molecular target: T1, α4β7 integrin on RPMI-8866 cells (human, UniProt P13612 34-1032; P26010 20-798); test: radiolabeled VCAM-Ig (<500 pM) on RPMI-8866 cells, MnCl2, filter plates, scintillation counting
T1 construct: whole, on cells; Endogenous integrin on RPMI-8866 cells; also called LPAM-1
Description: (§1) Compounds of this invention were prepared in DMSO at 100× the desired final assay concentration. Final concentrations were selected from a range between 0.001 nM-100 μM. […] The plates were incubated at room temperature for 45 minutes on a plate shaker at 200 rpm, filtered on a vacuum box, and washed on the same apparatus by the addition of 100 μL of binding buffer containing 1mM MnCl_2. After insertion of the multiscreen plates into adapter plates (Packard, Meriden, Coon., cat# 6005178), 100 μL of Microscint-20 (Packard cat# 6013621) was added to each well. The plates were then sealed, placed on a shaker for 30 seconds, and counted on a Topcount microplate scintillation counter (Packard). Control wells containing DMSO alone were used to determine the level of VCAM-Ig binding corresponding to 0% inhibition. […] Percent inhibition was then calculated for each test well and the IC$50$ was determined from a ten point titration using a validated four parameter fit algorithm.

[2] = molecular target: T2, VLA-4 (α4β1) on Jurkat cells, clone E6-1 (UniProt P13612 34-1032; P05556 21-798, limits assumed); test: radiolabeled VCAM-Ig (~100 pM) on Jurkat cells, 1 mM MnCl2, filter plates, scintillation counting
T2 construct: whole, on cells; Endogenous integrin on Jurkat cells; also called very late antigen-4; CD49d/CD29
Description: as §1, with “μM. Jurkat cells were centrifuged at 400×g for five minutes and resuspended in binding buffer (25 mM HEPES, 150 mM NaCl, 3 mM KCl, 2 mM glucose, 0.1% bovine serum albumin, pH 7.4). The cells were centrifuged again and resuspended in binding buffer supplemented with MnCl_2 at a final concentration of 1 mM.” for “μM.”, “30 minutes,” for “45 minutes on a plate shaker at 200 rpm,”, “1 mM” for “1mM”, “Conn.,” for “Coon.,”, “$IC50$” for “IC$50$”

T1 sequence (P13612 34-1032, chain 1 of 2): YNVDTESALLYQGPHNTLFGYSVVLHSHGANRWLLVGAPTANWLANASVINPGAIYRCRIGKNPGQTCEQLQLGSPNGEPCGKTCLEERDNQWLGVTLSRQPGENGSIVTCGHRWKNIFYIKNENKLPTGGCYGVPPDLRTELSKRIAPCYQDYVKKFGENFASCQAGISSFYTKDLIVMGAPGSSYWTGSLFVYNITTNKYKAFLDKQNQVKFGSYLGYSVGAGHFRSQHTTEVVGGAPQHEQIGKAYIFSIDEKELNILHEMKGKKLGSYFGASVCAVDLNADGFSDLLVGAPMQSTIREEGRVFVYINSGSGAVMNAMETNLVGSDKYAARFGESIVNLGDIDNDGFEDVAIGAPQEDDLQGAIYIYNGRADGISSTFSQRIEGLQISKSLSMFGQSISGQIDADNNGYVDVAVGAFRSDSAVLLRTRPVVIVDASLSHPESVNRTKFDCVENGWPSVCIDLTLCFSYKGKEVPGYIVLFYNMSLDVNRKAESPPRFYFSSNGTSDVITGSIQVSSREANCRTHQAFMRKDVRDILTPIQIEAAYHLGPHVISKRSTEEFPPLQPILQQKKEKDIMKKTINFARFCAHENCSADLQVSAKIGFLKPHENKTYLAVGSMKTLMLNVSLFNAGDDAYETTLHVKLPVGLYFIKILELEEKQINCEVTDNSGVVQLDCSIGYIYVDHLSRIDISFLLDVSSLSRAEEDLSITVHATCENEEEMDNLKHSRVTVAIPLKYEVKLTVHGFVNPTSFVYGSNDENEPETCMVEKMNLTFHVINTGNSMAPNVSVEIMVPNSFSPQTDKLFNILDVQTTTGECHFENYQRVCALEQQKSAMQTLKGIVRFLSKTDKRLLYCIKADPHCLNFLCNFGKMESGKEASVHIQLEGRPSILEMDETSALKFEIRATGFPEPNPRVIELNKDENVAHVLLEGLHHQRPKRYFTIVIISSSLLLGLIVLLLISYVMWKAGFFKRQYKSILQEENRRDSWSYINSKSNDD
T1 sequence (P26010 20-798, chain 2 of 2): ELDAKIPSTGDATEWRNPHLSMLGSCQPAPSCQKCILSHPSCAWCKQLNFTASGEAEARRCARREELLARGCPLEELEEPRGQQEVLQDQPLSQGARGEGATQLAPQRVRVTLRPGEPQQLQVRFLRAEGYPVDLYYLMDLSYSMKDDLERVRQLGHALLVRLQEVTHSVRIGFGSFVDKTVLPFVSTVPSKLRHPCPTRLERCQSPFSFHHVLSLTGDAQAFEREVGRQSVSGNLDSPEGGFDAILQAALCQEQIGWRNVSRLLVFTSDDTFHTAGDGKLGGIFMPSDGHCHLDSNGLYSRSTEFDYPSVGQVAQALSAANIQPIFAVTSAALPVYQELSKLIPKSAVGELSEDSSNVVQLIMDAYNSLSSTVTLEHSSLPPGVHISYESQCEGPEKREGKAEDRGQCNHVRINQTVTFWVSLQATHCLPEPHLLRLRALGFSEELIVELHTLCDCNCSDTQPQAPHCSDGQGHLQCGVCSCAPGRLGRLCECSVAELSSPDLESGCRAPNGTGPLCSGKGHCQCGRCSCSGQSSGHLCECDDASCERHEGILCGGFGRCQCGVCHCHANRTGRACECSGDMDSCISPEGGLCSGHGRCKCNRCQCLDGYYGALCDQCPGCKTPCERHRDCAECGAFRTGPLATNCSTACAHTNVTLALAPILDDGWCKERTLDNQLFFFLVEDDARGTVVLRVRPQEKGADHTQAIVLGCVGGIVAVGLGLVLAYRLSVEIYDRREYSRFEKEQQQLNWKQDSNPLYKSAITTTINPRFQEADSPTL
T2 sequence (P13612 34-1032 limits assumed, chain 1 of 2): as the sequence (P13612 34-1032, chain 1 of 2) above
T2 sequence (P05556 21-798 limits assumed, chain 2 of 2): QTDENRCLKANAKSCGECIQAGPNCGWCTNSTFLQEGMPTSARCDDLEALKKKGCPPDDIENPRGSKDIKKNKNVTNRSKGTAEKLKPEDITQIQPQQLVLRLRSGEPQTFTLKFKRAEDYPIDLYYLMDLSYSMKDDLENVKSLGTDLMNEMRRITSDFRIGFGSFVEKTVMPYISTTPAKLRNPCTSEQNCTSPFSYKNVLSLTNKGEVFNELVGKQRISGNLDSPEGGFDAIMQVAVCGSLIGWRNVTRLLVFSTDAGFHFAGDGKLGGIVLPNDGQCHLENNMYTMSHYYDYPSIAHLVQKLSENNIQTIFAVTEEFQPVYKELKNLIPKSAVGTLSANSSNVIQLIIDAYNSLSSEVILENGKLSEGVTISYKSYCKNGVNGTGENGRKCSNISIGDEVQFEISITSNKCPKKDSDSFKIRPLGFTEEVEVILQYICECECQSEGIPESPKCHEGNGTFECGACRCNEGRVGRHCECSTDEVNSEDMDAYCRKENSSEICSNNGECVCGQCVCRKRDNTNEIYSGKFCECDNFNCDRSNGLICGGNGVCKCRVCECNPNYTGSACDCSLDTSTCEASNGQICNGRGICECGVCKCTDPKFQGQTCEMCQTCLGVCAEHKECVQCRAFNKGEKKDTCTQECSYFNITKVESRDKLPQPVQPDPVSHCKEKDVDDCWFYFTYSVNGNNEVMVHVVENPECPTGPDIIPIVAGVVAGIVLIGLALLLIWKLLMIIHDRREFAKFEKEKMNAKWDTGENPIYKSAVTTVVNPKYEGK

binding result [1]: binds | binding result [2]: binds
B1: VCAM-Ig fusion protein (Fc fusion, not shown: small tags and cut ends)
chain: FKIETTPESRYLAQIGDSVSLTCSTTGCESPFFSWRTQIDSPLNGKVTNEGTTSTLTMNPVSFGNEHSYLCTATCESRKLEKGIQVEIYSFPKDPEIHLSGPLEAGKPITVKCSVADVYPFDRLEIDLLKGDHLMKSQEFLEDADRKSLETKSLEVTFTPVIEDIGKVLVCRAKLHIDEMDSVPTVRQAVKEL
modifications: labeled with 125I-Bolton Hunter reagent (sites not given)
